# Results reported in publication PMC12769810, “Structure and substrate promiscuity of Campylobacter jejuni periplasmic nitrate reductase (Nap) and phylogenetic analysis of Nap homologs” (The Journal of Biological Chemistry, 2025).
# Tests used:
# [1] = molecular target: T1, CjNapA (WT NapA) (Campylobacter jejuni, UniProt Q9PPD9); test: steady-state nitrate reductase assay, reduced methyl viologen oxidation, double-reciprocal plot; format: biochemical
# T1 construct: recombinant catalytic subunit NapA without NapB; native N-terminal TAT signal peptide replaced by that of E. coli; 889 residues modelled by cryo-EM
# T1 sequence (Q9PPD9 31-924): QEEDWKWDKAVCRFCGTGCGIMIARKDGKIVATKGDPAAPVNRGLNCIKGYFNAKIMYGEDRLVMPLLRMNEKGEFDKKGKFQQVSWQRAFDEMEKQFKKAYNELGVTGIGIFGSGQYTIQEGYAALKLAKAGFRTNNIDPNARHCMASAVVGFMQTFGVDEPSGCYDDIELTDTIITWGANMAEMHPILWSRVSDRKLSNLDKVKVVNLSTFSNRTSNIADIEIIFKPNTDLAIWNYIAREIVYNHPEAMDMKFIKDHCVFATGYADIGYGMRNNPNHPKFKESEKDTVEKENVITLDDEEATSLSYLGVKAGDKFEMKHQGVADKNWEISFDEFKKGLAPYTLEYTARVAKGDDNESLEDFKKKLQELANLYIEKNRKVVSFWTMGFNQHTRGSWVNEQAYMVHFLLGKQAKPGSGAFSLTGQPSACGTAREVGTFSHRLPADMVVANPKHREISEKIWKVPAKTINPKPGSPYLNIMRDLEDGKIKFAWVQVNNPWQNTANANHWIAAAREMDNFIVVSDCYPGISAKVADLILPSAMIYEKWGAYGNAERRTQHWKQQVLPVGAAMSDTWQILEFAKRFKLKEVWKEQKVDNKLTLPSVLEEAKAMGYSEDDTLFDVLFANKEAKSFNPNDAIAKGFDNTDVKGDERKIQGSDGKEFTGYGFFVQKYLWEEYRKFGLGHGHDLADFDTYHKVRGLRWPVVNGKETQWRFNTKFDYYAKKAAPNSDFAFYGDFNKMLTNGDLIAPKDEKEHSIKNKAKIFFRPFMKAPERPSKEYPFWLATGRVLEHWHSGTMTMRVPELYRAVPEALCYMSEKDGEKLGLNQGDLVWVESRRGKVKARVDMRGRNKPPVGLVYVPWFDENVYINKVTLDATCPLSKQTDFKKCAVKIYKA
# [2] = molecular target: T1, CjNapA (WT NapA); test: cryo-EM structure, […] Å; format: binding; conditions: coordinated by Cys42, Cys45, Cys49, Cys77
# [3] = tested on: [O-][Cl+3]([O-])([O-])O; test: purified protein; format: biochemical, Campylobacter jejuni; conditions: reduced methyl viologen, 50 mM HEPES pH 7, room temperature, argon glove box, 67 nM enzyme, corrected for background oxidation
# [4] = tested on: [O-][Cl+2]([O-])O; test: purified protein; format: biochemical, Campylobacter jejuni; conditions: reduced methyl viologen, 50 mM HEPES pH 7, room temperature, argon glove box, 67 nM enzyme
compound,measurement,setting,value
[O-][Cl+3]([O-])([O-])O [perchlorate],Ki,[1],4.7 ± 0.3 mM
[S]12[Fe]3[S]4[Fe]1[S]1[Fe]2[S]3[Fe]41 [[4Fe4S] cluster],"cryo-EM structure, 3.04 Å",[2],"NapA has a [4Fe4S] cluster, which is located closer to the surface of the protein"
CjNapA (WT NapA) (Campylobacter jejuni subsp. jejuni NCTC 11168 = ATCC 700819),Km,[3],22.907 ± 3.132 mM
same,kcat,[3],2.52 ± 0.07 s⁻¹
same,kcat/Km,[3],100 M⁻¹ s⁻¹
same,Km,[4],0.968 ± 0.093 mM
same,kcat,[4],2.13 ± 0.04 s⁻¹
same,kcat/Km,[4],2200 M⁻¹ s⁻¹
